Test [1] addresses T1, human IL-13 (recombinant E. coli-expressed) (human, UniProt P35225 35-146). Kind of test: cell-based or functional assay.
In test [2] the target is T1, human IL-13 (recombinant E. …). Nature of the test: ProteOn XPR36 SPR, mAb captured on anti-human IgG, IL13 analyte. The protocol: (§1) The initial screen of CDRH3 mutants was carried out on the ProteOn XPR36 (Biorad). […] 3M MgCl₂ was used to regenerate the capture surface, removing the bound CDRH3 mutant antibodies ready for another cycle of capture and analyte injection. The data was fitted to the 1:1 model using the software inherent to the machine.

The target is the same in test [3]. Nature of the test: Biacore T100 SPR, purified mAb captured on anti-human IgG, IL13 analyte, 1:1 fit. The text has this:
(§2) Table 1 details the overall affinities (equilibrium dissociation constant KD) for the selected constructs from the ProteOn screen and the T100 run
On the technique in general: SPR reads the build-up and loss of mass on a sensor chip optically.

The target is the same in test [4]. Kind of test: ProteOn XPR36 SPR, purified mAb captured on anti-human IgG, IL13 analyte, 1:1 fit; range over several runs. The protocol: as §1
For test [5] the target is unchanged. Nature of the test: cell-based or functional assay. This is another data set of the same source.
Test [6] shares this target. Kind of test: Biacore T100 SPR, purified mAb captured on anti-human IgG, IL13 analyte, 1:1 fit.
Source text: as §2
The source holds these as a separate data set.

Test [7] shares this target. Nature of the test: Biacore T100 SPR, mAb captured on anti-human IgG, IL13 analyte, 1:1 fit.
Source text: as §2

Test [8] has the same target. Nature of the test: Biacore T100 SPR, mAb captured on anti-human IgG, IL13 analyte. The procedure: as §2
(§3) In light of this, mutations at this residue that were not present in the initial screen were tested using the ProteOn using the same method as described earlier and again using antibodies direct from tissue culture supernatants.

The target of test [9] is T2, human IL-4 (recombinant E. coli-expressed) (human, UniProt P05112 25-153).
T2 sequence (looked up): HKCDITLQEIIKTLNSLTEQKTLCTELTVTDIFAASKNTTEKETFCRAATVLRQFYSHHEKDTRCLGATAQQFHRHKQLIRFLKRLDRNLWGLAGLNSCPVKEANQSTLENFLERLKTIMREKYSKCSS
Kind of test: direct binding ELISA, plate coated with 5 µg/ml human IL-4, anti-human kappa light chain-HRP detection, absorbance at 490 nm. The protocol: An ELISA was performed as described in example 4, coating 96-well high binding plates with 50 μl/well of recombinant E. coli-expressed human IL-4 at 5 μg/ml and incubated at +4° C. overnight.

Test [10] concerns the target T1, human IL-13 (recombinant E. …). Nature of the test: ProteOn XPR36 SPR, mAb (supernatant) captured on anti-human IgG, IL13 analyte. The protocol: as §1, §3
Test [11] shares this target. Kind of test: Biacore T100 SPR, mAb (supernatant) captured on anti-human IgG, IL13 analyte, 1:1 fit.
Source text: as §2

Substitutions are numbered along the chain they refer to.

This is an account of results in patent publication US20120082682A1 (GlaxoSmithKline, published 2012).

As usually defined, the Kd is the concentration at which binding is half-saturated. Broadly, the koff is the first-order rate constant of dissociation. As usually defined, the kon is the rate constant with which the complex forms.

T1 sequence (P35225 other isoform, or with tags, fused parts or gaps limits assumed): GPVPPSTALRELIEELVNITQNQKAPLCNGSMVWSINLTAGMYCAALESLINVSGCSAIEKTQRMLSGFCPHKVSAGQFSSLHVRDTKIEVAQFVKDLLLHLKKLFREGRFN

B1: A1L1 (antibody, human IgG1, kappa, V domains shown)
VH: QVQLVQSGAEVKKPGSSVKVSCKASGFYIKDTYMHWVRQAPGQGLEWMGTIDPANGNTKYVPKFQGRVTITADESTSTAYMELSSLRSEDTAVYYCARSIYDDYHYDDYYAMDYWGQGTLVTVSS
VL: DIVMTQSPLSLPVTPGEPASISCRSSQNIVHINGNTYLEWYLQKPGQSPRLLIYKISDRFSGVPDRFSGSGSGTDFTLKISRVEADDVGIYYCFQGSHVPWTFGQGTKLEIKR
notes: Humanised version of murine 6A1, human IgG1 kappa; also called parental; 586 (mAb)
As for B1, the “Mean ND50 value (nM), TF-1 cell proliferation bioassay” value in [1] worked out at 5.01 nM. For the same molecule, the Kd in [2] was 0.39 to 0.46 nM; in [3], 0.366 nM; in test [4], 0.45 to 0.6 nM; in [6] it was 0.326 nM; in [7], 0.36 nM; in [8], 0.346 nM. Also, the “ND50 (nM), TF-1 cell proliferation bioassay” value in [5] was determined as 9.77 nM. The koff in test [6] amounted to 0.000368 s⁻¹; in test [7], 0.000456 s⁻¹. The kon is 1.13e+06 M⁻¹ s⁻¹ in test [6] and 1.27e+06 M⁻¹ s⁻¹ in [7].

B2: A1Y100B ValL1 (antibody, human IgG1, kappa, V domains shown)
VH: B1 VH with Y106V
VL: B1 VL
notes: CDRH3 variant of A1L1; also called A1Y100BVAL1; 829 (mAb)
For the molecule B2, the binding result in test [9] is on record as “no binding (tested: 10 µg/ml)”. The equilibrium dissociation constant (Kd) was determined as 0.166 nM in test [10], 0.027 nM in [6], 0.034 nM in test [11] and 0.025 nM in test [8]. The dissociation rate constant (koff) came to 2.12e-05 s⁻¹ in [6] and 3.45e-05 s⁻¹ in test [11]. Besides, the on-rate (kon) in [6] is 776000 M⁻¹ s⁻¹; in test [11] it was 1.02e+06 M⁻¹ s⁻¹.
